From article PMC7214622, “Function of P2X4 Receptors Is Directly Modulated by a 1:1 Stoichiometric Interaction With 5-HT3A Receptors” (Frontiers in Cellular Neuroscience, 2020)

Molecular target: T1, rat P2X4 receptor with a C-terminal hemagglutinin (HA) tag (rat, UniProt P51577 1-388)
T1 construct: P2X4 subunit, rat (Rattus norvegicus), GenBank U47031.1; UniProt P51577 is printed for the rat P2X4 subunit in the modelling methods; The subunit ran at 70 kDa on SDS-PAGE, which the authors put down to glycosylation; also called P2X4 subunit; source: tsA201 cells, transfected (pcDNA3.1, PEI); Triton X-100 solubilised MEMBRANE fraction; eluted from anti-HA agarose beads with HA peptide; not …
T1 sequence (looked up): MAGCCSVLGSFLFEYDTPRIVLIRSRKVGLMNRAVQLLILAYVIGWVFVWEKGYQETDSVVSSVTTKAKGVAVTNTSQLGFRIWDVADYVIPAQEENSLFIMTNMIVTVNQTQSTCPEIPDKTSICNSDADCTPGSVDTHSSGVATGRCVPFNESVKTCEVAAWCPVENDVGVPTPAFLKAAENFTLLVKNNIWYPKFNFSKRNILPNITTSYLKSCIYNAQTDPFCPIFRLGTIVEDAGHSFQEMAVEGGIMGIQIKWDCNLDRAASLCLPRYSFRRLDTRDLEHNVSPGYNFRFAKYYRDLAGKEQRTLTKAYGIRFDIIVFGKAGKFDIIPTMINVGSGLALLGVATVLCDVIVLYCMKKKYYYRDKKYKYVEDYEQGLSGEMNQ
Test: atomic force microscopy imaging; complexes co-purified by the HA tag from co-transfected tsA201 cells, adsorbed onto mica for 15 min, dried and imaged in intermittent contact mode; histograms of molecular volumes fitted by a double Gaussian; without ATP, or with 100 μM ATP for 30 min in solution before adsorption
Settings: partners not purified

B1: human 5-HT3A receptor with a C-terminal MYC/His-6 epitope tag (receptor, UniProt P46098 24-478, looked up)
chain: RRSRNTTRPALLRLSDYLLTNYRKGVRPVRDWRKPTTVSIDVIVYAILNVDEKNQVLTTYIWYRQYWTDEFLQWNPEDFDNITKLSIPTDSIWVPDILINEFVDVGKSPNIPYVYIRHQGEVQNYKPLQVVTACSLDIYNFPFDVQNCSLTFTSWLHTIQDINISLWRLPEKVKSDRSVFMNQGEWELLGVLPYFREFSMESSNYYAEMKFYVVIRRRPLFYVVSLLLPSIFLMVMDIVGFYLPPNSGERVSFKITLLLGYSVFLIIVSDTLPATAIGTPLIGVYFVVCMALLVISLAETIFIVRLVHKQDLQQPVPAWLRHLVLERIAWLLCLREQSTSQRPPATSQATKTDDCSAMGNHCSHMGGPQDFEKSPRDRCSPPPPPREASLAVCGLLQELSSIRQFLEKRDEIREVARDWLRVGSVLDKLLFHIYLLAVLAYSITLVMLWSIWQYA
notes: 5-HT3A subunit, human (Homo sapiens), GenBank AK304630.1; UniProt P46098 is printed for the human 5-HT3A subunit in the modelling methods; The subunit ran at 55 kDa on SDS-PAGE; also called 5-HT3A subunit; 5-HT3A-MYC/His6; source: tsA201 cells, transfected (pcDNA3.1, PEI); Triton X-100 solubilised MEMBRANE fraction; eluted from HisPur Ni-NTA agarose beads with 200 mM imidazole; not shown: MYC, …
stoichiometry N: 1
